From patent publication US20180155451A1 (published 2018)

T1: FcγRIIa R (human, UniProt P12318 34-217)
T1 construct: extracellular domain; also called FcgRIIa R type; 2aR
T1 sequence (looked up): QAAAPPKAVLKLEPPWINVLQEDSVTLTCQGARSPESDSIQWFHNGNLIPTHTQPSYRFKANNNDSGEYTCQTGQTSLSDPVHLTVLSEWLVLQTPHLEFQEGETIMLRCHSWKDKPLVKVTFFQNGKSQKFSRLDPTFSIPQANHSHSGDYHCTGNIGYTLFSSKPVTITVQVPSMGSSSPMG


Biological target: T1, FcγRIIa R
Test: SPR Biacore; vs GpH7-A5/GpH7-B3/GpL16-k0 =100

Binder | He/Con_2aR
GpH7-A5/GpH7-B3 variant N325_03V/GpL16-k0 (antibody, human IgG1, kappa, also called He Ab N325_03V) heavy 1: not shown heavy 2: not shown light: DIVMTQSPLSLPVTPGEPASISCQASESLVHSNRNTYLHWYLQKPGQSPQLLIYKVSNRFSGVPDRFSGSGSGTDFTLKISRVEAEDVGVYYCSQNTHVPPTFGQGTKVEIERTVAAPSVFIFPPSDEQLKSGTASVVCLLNNFYPREAKVQWKVDNALQSGNSQESVTEQDSKDSTYSLSSTLTLSKADYEKHKVYACEVTHQGLSSPVTKSFNRGEC | 108 % of control
GpH7-A5/GpH7-B3 variant P331_16H/GpL16-k0 (antibody, human IgG1, kappa, also called He Ab P331_16H) heavy 1: not shown heavy 2: not shown light: DIVMTQSPLSLPVTPGEPASISCQASESLVHSNRNTYLHWYLQKPGQSPQLLIYKVSNRFSGVPDRFSGSGSGTDFTLKISRVEAEDVGVYYCSQNTHVPPTFGQGTKVEIERTVAAPSVFIFPPSDEQLKSGTASVVCLLNNFYPREAKVQWKVDNALQSGNSQESVTEQDSKDSTYSLSSTLTLSKADYEKHKVYACEVTHQGLSSPVTKSFNRGEC | 114 % of control
GpH7-A5/GpH7-B3 variant N325_10E/GpL16-k0 (antibody, human IgG1, kappa, also called He Ab N325_10E) heavy 1: not shown heavy 2: not shown light: DIVMTQSPLSLPVTPGEPASISCQASESLVHSNRNTYLHWYLQKPGQSPQLLIYKVSNRFSGVPDRFSGSGSGTDFTLKISRVEAEDVGVYYCSQNTHVPPTFGQGTKVEIERTVAAPSVFIFPPSDEQLKSGTASVVCLLNNFYPREAKVQWKVDNALQSGNSQESVTEQDSKDSTYSLSSTLTLSKADYEKHKVYACEVTHQGLSSPVTKSFNRGEC | 105 % of control
GpH7-A5/GpH7-B3 variant N325_09D/GpL16-k0 (antibody, human IgG1, kappa, also called He Ab N325_09D) heavy 1: not shown heavy 2: not shown light: DIVMTQSPLSLPVTPGEPASISCQASESLVHSNRNTYLHWYLQKPGQSPQLLIYKVSNRFSGVPDRFSGSGSGTDFTLKISRVEAEDVGVYYCSQNTHVPPTFGQGTKVEIERTVAAPSVFIFPPSDEQLKSGTASVVCLLNNFYPREAKVQWKVDNALQSGNSQESVTEQDSKDSTYSLSSTLTLSKADYEKHKVYACEVTHQGLSSPVTKSFNRGEC | 116 % of control
GpH7-A5/GpH7-B3 variant N325_20W/GpL16-k0 (antibody, human IgG1, kappa, also called He Ab N325_20W) heavy 1: not shown heavy 2: not shown light: DIVMTQSPLSLPVTPGEPASISCQASESLVHSNRNTYLHWYLQKPGQSPQLLIYKVSNRFSGVPDRFSGSGSGTDFTLKISRVEAEDVGVYYCSQNTHVPPTFGQGTKVEIERTVAAPSVFIFPPSDEQLKSGTASVVCLLNNFYPREAKVQWKVDNALQSGNSQESVTEQDSKDSTYSLSSTLTLSKADYEKHKVYACEVTHQGLSSPVTKSFNRGEC | 134 % of control
GpH7-A5/GpH7-B3 variant P331_15Y/GpL16-k0 (antibody, human IgG1, kappa, also called He Ab P331_15Y) heavy 1: not shown heavy 2: not shown light: DIVMTQSPLSLPVTPGEPASISCQASESLVHSNRNTYLHWYLQKPGQSPQLLIYKVSNRFSGVPDRFSGSGSGTDFTLKISRVEAEDVGVYYCSQNTHVPPTFGQGTKVEIERTVAAPSVFIFPPSDEQLKSGTASVVCLLNNFYPREAKVQWKVDNALQSGNSQESVTEQDSKDSTYSLSSTLTLSKADYEKHKVYACEVTHQGLSSPVTKSFNRGEC | 112 % of control
GpH7-A5/GpH7-B3 variant P331_04F/GpL16-k0 (antibody, human IgG1, kappa, also called He Ab P331_04F) heavy 1: not shown heavy 2: not shown light: DIVMTQSPLSLPVTPGEPASISCQASESLVHSNRNTYLHWYLQKPGQSPQLLIYKVSNRFSGVPDRFSGSGSGTDFTLKISRVEAEDVGVYYCSQNTHVPPTFGQGTKVEIERTVAAPSVFIFPPSDEQLKSGTASVVCLLNNFYPREAKVQWKVDNALQSGNSQESVTEQDSKDSTYSLSSTLTLSKADYEKHKVYACEVTHQGLSSPVTKSFNRGEC | 111 % of control
GpH7-A5/GpH7-B3 variant N325_13S/GpL16-k0 (antibody, human IgG1, kappa, also called He Ab N325_13S) heavy 1: not shown heavy 2: not shown light: DIVMTQSPLSLPVTPGEPASISCQASESLVHSNRNTYLHWYLQKPGQSPQLLIYKVSNRFSGVPDRFSGSGSGTDFTLKISRVEAEDVGVYYCSQNTHVPPTFGQGTKVEIERTVAAPSVFIFPPSDEQLKSGTASVVCLLNNFYPREAKVQWKVDNALQSGNSQESVTEQDSKDSTYSLSSTLTLSKADYEKHKVYACEVTHQGLSSPVTKSFNRGEC | 143 % of control
GpH7-A5/GpH7-B3 variant P238_04F/GpL16-k0 (antibody, human IgG1, kappa, also called He Ab P238_04F) heavy 1: not shown heavy 2: not shown light: DIVMTQSPLSLPVTPGEPASISCQASESLVHSNRNTYLHWYLQKPGQSPQLLIYKVSNRFSGVPDRFSGSGSGTDFTLKISRVEAEDVGVYYCSQNTHVPPTFGQGTKVEIERTVAAPSVFIFPPSDEQLKSGTASVVCLLNNFYPREAKVQWKVDNALQSGNSQESVTEQDSKDSTYSLSSTLTLSKADYEKHKVYACEVTHQGLSSPVTKSFNRGEC | 174 % of control
GpH7-A5/GpH7-B3 variant N325_15Y/GpL16-k0 (antibody, human IgG1, kappa, also called He Ab N325_15Y) heavy 1: not shown heavy 2: not shown light: DIVMTQSPLSLPVTPGEPASISCQASESLVHSNRNTYLHWYLQKPGQSPQLLIYKVSNRFSGVPDRFSGSGSGTDFTLKISRVEAEDVGVYYCSQNTHVPPTFGQGTKVEIERTVAAPSVFIFPPSDEQLKSGTASVVCLLNNFYPREAKVQWKVDNALQSGNSQESVTEQDSKDSTYSLSSTLTLSKADYEKHKVYACEVTHQGLSSPVTKSFNRGEC | 101 % of control
GpH7-A5/GpH7-B3 variant P238_09D/GpL16-k0 (antibody, human IgG1, kappa, also called He Ab P238_09D) heavy 1: not shown heavy 2: not shown light: DIVMTQSPLSLPVTPGEPASISCQASESLVHSNRNTYLHWYLQKPGQSPQLLIYKVSNRFSGVPDRFSGSGSGTDFTLKISRVEAEDVGVYYCSQNTHVPPTFGQGTKVEIERTVAAPSVFIFPPSDEQLKSGTASVVCLLNNFYPREAKVQWKVDNALQSGNSQESVTEQDSKDSTYSLSSTLTLSKADYEKHKVYACEVTHQGLSSPVTKSFNRGEC | 148 % of control
GpH7-A5/GpH7-B3 variant P331_02A/GpL16-k0 (antibody, human IgG1, kappa, also called He Ab P331_02A) heavy 1: not shown heavy 2: not shown light: DIVMTQSPLSLPVTPGEPASISCQASESLVHSNRNTYLHWYLQKPGQSPQLLIYKVSNRFSGVPDRFSGSGSGTDFTLKISRVEAEDVGVYYCSQNTHVPPTFGQGTKVEIERTVAAPSVFIFPPSDEQLKSGTASVVCLLNNFYPREAKVQWKVDNALQSGNSQESVTEQDSKDSTYSLSSTLTLSKADYEKHKVYACEVTHQGLSSPVTKSFNRGEC | 106 % of control
GpH7-A5/GpH7-B3 variant N325_08L/GpL16-k0 (antibody, human IgG1, kappa, also called He Ab N325_08L) heavy 1: not shown heavy 2: not shown light: DIVMTQSPLSLPVTPGEPASISCQASESLVHSNRNTYLHWYLQKPGQSPQLLIYKVSNRFSGVPDRFSGSGSGTDFTLKISRVEAEDVGVYYCSQNTHVPPTFGQGTKVEIERTVAAPSVFIFPPSDEQLKSGTASVVCLLNNFYPREAKVQWKVDNALQSGNSQESVTEQDSKDSTYSLSSTLTLSKADYEKHKVYACEVTHQGLSSPVTKSFNRGEC | 144 % of control
GpH7-A5/GpH7-B3 variant P238_06M/GpL16-k0 (antibody, human IgG1, kappa, also called He Ab P238_06M) heavy 1: not shown heavy 2: not shown light: DIVMTQSPLSLPVTPGEPASISCQASESLVHSNRNTYLHWYLQKPGQSPQLLIYKVSNRFSGVPDRFSGSGSGTDFTLKISRVEAEDVGVYYCSQNTHVPPTFGQGTKVEIERTVAAPSVFIFPPSDEQLKSGTASVVCLLNNFYPREAKVQWKVDNALQSGNSQESVTEQDSKDSTYSLSSTLTLSKADYEKHKVYACEVTHQGLSSPVTKSFNRGEC | 139 % of control
GpH7-A5/GpH7-B3 variant S239_08L/GpL16-k0 (antibody, human IgG1, kappa, also called He Ab S239_08L) heavy 1: not shown heavy 2: not shown light: DIVMTQSPLSLPVTPGEPASISCQASESLVHSNRNTYLHWYLQKPGQSPQLLIYKVSNRFSGVPDRFSGSGSGTDFTLKISRVEAEDVGVYYCSQNTHVPPTFGQGTKVEIERTVAAPSVFIFPPSDEQLKSGTASVVCLLNNFYPREAKVQWKVDNALQSGNSQESVTEQDSKDSTYSLSSTLTLSKADYEKHKVYACEVTHQGLSSPVTKSFNRGEC | 122 % of control
GpH7-A5/GpH7-B3 variant P271_08L/GpL16-k0 (antibody, human IgG1, kappa, also called He Ab P271_08L) heavy 1: not shown heavy 2: not shown light: DIVMTQSPLSLPVTPGEPASISCQASESLVHSNRNTYLHWYLQKPGQSPQLLIYKVSNRFSGVPDRFSGSGSGTDFTLKISRVEAEDVGVYYCSQNTHVPPTFGQGTKVEIERTVAAPSVFIFPPSDEQLKSGTASVVCLLNNFYPREAKVQWKVDNALQSGNSQESVTEQDSKDSTYSLSSTLTLSKADYEKHKVYACEVTHQGLSSPVTKSFNRGEC | 104 % of control
GpH7-A5/GpH7-B3 variant P238_03V/GpL16-k0 (antibody, human IgG1, kappa, also called He Ab P238_03V) heavy 1: not shown heavy 2: not shown light: DIVMTQSPLSLPVTPGEPASISCQASESLVHSNRNTYLHWYLQKPGQSPQLLIYKVSNRFSGVPDRFSGSGSGTDFTLKISRVEAEDVGVYYCSQNTHVPPTFGQGTKVEIERTVAAPSVFIFPPSDEQLKSGTASVVCLLNNFYPREAKVQWKVDNALQSGNSQESVTEQDSKDSTYSLSSTLTLSKADYEKHKVYACEVTHQGLSSPVTKSFNRGEC | 120 % of control
GpH7-A5/GpH7-B3 variant P331_20W/GpL16-k0 (antibody, human IgG1, kappa, also called He Ab P331_20W) heavy 1: not shown heavy 2: not shown light: DIVMTQSPLSLPVTPGEPASISCQASESLVHSNRNTYLHWYLQKPGQSPQLLIYKVSNRFSGVPDRFSGSGSGTDFTLKISRVEAEDVGVYYCSQNTHVPPTFGQGTKVEIERTVAAPSVFIFPPSDEQLKSGTASVVCLLNNFYPREAKVQWKVDNALQSGNSQESVTEQDSKDSTYSLSSTLTLSKADYEKHKVYACEVTHQGLSSPVTKSFNRGEC | 110 % of control
GpH7-A5/GpH7-B3 variant N325_04F/GpL16-k0 (antibody, human IgG1, kappa, also called He Ab N325_04F) heavy 1: not shown heavy 2: not shown light: DIVMTQSPLSLPVTPGEPASISCQASESLVHSNRNTYLHWYLQKPGQSPQLLIYKVSNRFSGVPDRFSGSGSGTDFTLKISRVEAEDVGVYYCSQNTHVPPTFGQGTKVEIERTVAAPSVFIFPPSDEQLKSGTASVVCLLNNFYPREAKVQWKVDNALQSGNSQESVTEQDSKDSTYSLSSTLTLSKADYEKHKVYACEVTHQGLSSPVTKSFNRGEC | 120 % of control
GpH7-A5/GpH7-B3 variant N325_14T/GpL16-k0 (antibody, human IgG1, kappa, also called He Ab N325_14T) heavy 1: not shown heavy 2: not shown light: DIVMTQSPLSLPVTPGEPASISCQASESLVHSNRNTYLHWYLQKPGQSPQLLIYKVSNRFSGVPDRFSGSGSGTDFTLKISRVEAEDVGVYYCSQNTHVPPTFGQGTKVEIERTVAAPSVFIFPPSDEQLKSGTASVVCLLNNFYPREAKVQWKVDNALQSGNSQESVTEQDSKDSTYSLSSTLTLSKADYEKHKVYACEVTHQGLSSPVTKSFNRGEC | 105 % of control
GpH7-A5/GpH7-B3 variant N325_07I/GpL16-k0 (antibody, human IgG1, kappa, also called He Ab N325_07I) heavy 1: not shown heavy 2: not shown light: DIVMTQSPLSLPVTPGEPASISCQASESLVHSNRNTYLHWYLQKPGQSPQLLIYKVSNRFSGVPDRFSGSGSGTDFTLKISRVEAEDVGVYYCSQNTHVPPTFGQGTKVEIERTVAAPSVFIFPPSDEQLKSGTASVVCLLNNFYPREAKVQWKVDNALQSGNSQESVTEQDSKDSTYSLSSTLTLSKADYEKHKVYACEVTHQGLSSPVTKSFNRGEC | 133 % of control
